From US20200078469A1, “HEPARIN-PEPTIDE BIOCONJUGATES AND USES THEREOF” (Symic IP, LLC, priority 2015, published 2020)
Ends that are not written are not given here.

Molecular target: collagen
Test: Collagen-binding plate assay
Conditions: compared to Hep-SILY that does not contain aggregates
Procedure: The following method is used to assess the binding affinity of bioconjugates disclosed herein for collagen. Similar assays are employed to assess binding affinity of other targets (e.g., hyaluronic acid, ICAM, VCAM, selectin).
Collagen-binding of bioconjugate variants was compared by a plate-assay, in which collagen was coated on 96-well plates. Collagen was coated on high-bind plates at 50 μg/mL in 0.02 N acetic acid for 1 hour at room temperature. Unbound collagen was rinsed with 1×PBS pH 7.4. Plates were then blocked in 1% milk in 1×PBS solution for 1 hour at room temperature.
Bioconjugate variants containing biotinlyated peptides were dissolved to a final concentration of 1 mg/mL in 1% milk in 1×PBS pH 7.4. From this solution, a 10× serial dilution was performed. Molecules were then incubated on the blocked collagen-coated plates and incubated for 15 minutes at room temperature. Plates were then rinsed 3 times with 1×PBS in 1% BSA and 0.2% Tween20.
Bound molecules were detected by streptavidin-HRP, which was diluted 1:500 in 1×PBS with 1% BSA and 0.2% Tween20 and incubated 200 μL/well for 20 minutes at room temperature. Streptavidin solution was rinsed from the plates 3 times with 1×PBS with 0.2% Tween20. […] Absorbance in the well was then measured at 450 nm and binding affinity was plotted in a dose-response by absorbance vs. concentration.

B1: Hep-SILY containing aggregates: Hep-SILY made with modified purification, containing ionically interacting non-covalently bound SILY peptide; high molecular weight aggregates (conjugate)
peptide 1: RRANAALKAGELYKSILYGSG
peptide 2: RRANAALKAGELYKSILYGSG
peptide 3: RRANAALKAGELYKSILYGSG
modifications: also: conjugated to heparin (glycan) via hydrazide-carbonyl linkage, non-covalent high molecular weight aggregates
With B1 the “collagen binding affinity (EC50)” value was “higher affinity (lower EC50 values)”.
